T1: human lysozyme (human, UniProt P61626 19-148)
T1 construct: Bought; passed through Superdex 75 before SPR
T1 sequence (looked up): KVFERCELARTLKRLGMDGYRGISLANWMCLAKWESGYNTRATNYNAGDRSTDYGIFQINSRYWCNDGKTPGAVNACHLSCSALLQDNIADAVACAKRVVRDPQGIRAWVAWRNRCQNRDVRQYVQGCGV


What was measured:
human lysozyme = biological target: T1, human lysozyme; assay: SPR (Biacore 3000), human lysozyme over immobilized VL
Protocol: The affinities (KDs) of the anti-human lysozyme VLs to their antigen, human lysozyme, was also determined. The binding of human lysozyme to immobilized anti-human lysozyme VL binders was determined by surface plasmon resonance (SPR) using BIACORE 3000 (GE Healthcare). […] Immobilizations were carried out at concentrations of 10 μg/mL in 10 mM acetate at pH 4.5 using the amine coupling kit supplied by the manufacturer. Human lysozyme was passed through a Superdex 75 column (GE Healthcare) in HBS-EP buffer (10 mM HEPES, pH 7.4, 150 mM NaCl, 3 mM EDTA and 0.005% P20 surfactant) with flow rate of 0.5 mL/min to eliminate any possible aggregates prior to Biacore analysis. For the binding studies, analyses were carried out at 25° C. in 10 mM HEPES, pH 7.4 containing 150 mM NaCl, 3 mM EDTA and 0.005% surfactant P20. The flow rates used were 20 μL/min. For regeneration the surfaces were washed for 15 min with the running buffer. Data were analyzed with BIAevaluation 4.1 software. From the SPR profiles (FIG. 15), it can be seen that the anti-human lysozyme VLs indeed bind to their target antigen, lysozyme, confirming the binding results obtained by phage ELISA.

protein A [1] = biological target: T2, protein A (UniProt P38507 37-477); assay: SPR (Biacore 3000), VH over immobilized protein A
T2 construct: Bought (Pierce); immobilized on CM5 chip by amine coupling; also called recombinant protein A
Protocol: Immobilizations were carried out at 50 μg/mL in 10 mM acetate buffer, pH 4.5, using the amine coupling kit supplied by the manufacturer (GE Healthcare). All measurements were carried out at 25° C. in HBS-EP buffer at a flow rate of 50 μL/min. Surfaces were regenerated by washing with the running buffer.

protein A [2] = biological target: T2, protein A; assay: SPR, KD of the mutant against KD of the wild-type VH on protein A
protein A [3] = biological target: T2, protein A; assay: SPR (Biacore 3000), VH over immobilized protein A; value in parentheses obtained with higher concentration of monomer (footnote d)
Protocol: For mutant VHs (HVHP44S, HVHB82S, HVHP421S, HVHP419S, HVHP430S, HVHP429S, HVHM81S, HVHP428S, HVHP420S, HVHM41S, HVHP423S, HVHP413S, HVHP426S, and HVHP414S), approximately 1,170 RUs and 1,240 RUs of recombinant protein A and ovalbumin (reference protein), respectively, were immobilized on research grade sensor chip CMS. Immobilizations were carried out at 50 μg/mL in 10 mM acetate buffer (pH 4.5 for both protein A and ovalbumin) using the amine coupling kit supplied by the manufacturer. All measurements were carried out at 25° C. in HBS-EP buffer at a flow rate of 20 μL/min or 40 μL/min for HVHB82S, HVHP421S, HVHP429S, HVHM41S, HVHM81S, HVHP423S, HVHP413S, HVHP426S, and HVHP414S or HVHP44S, HVHP419S, HVHP430S, HVHP428S, and HVHP420S, respectively. The protein A binding property of the wild-type counterparts were determined previously (To et al 2005).

Binder	Kd (human lysozyme)	Kd (protein A [1])	further results
HVLHLEM (antibody, V domains shown, Anti-human lysozyme VL single-domain antibody from the HVLP324S library (Cys48/Cys64); not shown: C-terminal His6 tag) VL: DIQMTQSPSSLSASVGDRVTITCQASQGIEMFLQWYQQKPGKAPKLLCFAASTLQSGVPSRFSCSGSGTDFTLTISNLQPEDFATYYCVQPGVAPPPGTFGHGTKVTVL	> 73000 nM	–	–
HVLHLQI (antibody, V domains shown, Anti-human lysozyme VL single-domain antibody from the HVLP324S library (Cys48/Cys64); not shown: C-terminal His6 tag) VL: DIQMTQSPSSLSASVGDRVTITCRASQSIQIMLDWYQQKPGKAPKLLCFGASFLISGVPSRFSCSGSGTDFTLTISNLQPEDFATYYCRQTWTPPAPTFGHGTKVTVL	2600 nM	–	–
HVHM81S (antibody, V domains shown, Cys49/Cys69 (Kabat) mutant of HVHM81; VH single-domain antibody; tag not specified) VH: EVQLVQSGGGLVQPGRSLRLSCAASGFTFDDYAMHWVRQAPGKGLEWVCGISGSGASTYYADSVKGRFTCSRDNSKNTLYLQMNSLRAGDTALYYCARQSITGPTGAFDVWGQGTMVTVSS	–	2100 nM	fold reduction in protein A binding (increase in KD) against wild-type HVHM81 (protein A [2]): 1.6 fold
HVLHLYS (antibody, V domains shown, Anti-human lysozyme VL single-domain antibody from the HVLP324S library (Cys48/Cys64); not shown: C-terminal His6 tag) V domain: DIQMTQSPSSLSASVGDRVTITCQASQSIYSKLYWYQQKPGKAPKLLCFPASLLWSGVPSRFSCSGSGTDFTLTISNLQPEDFATYYCLQNAADPHRTFGHGTKVRL	6400 nM	–	–
HVHPC235S (antibody, V domains shown, Cys49/Cys69 (Kabat) mutant of HVHPC235; VH single-domain antibody; tag not specified; also called HVHAmC235S; HVHP235S) VH: QVQLVESGGGLIKPGGSLRLSCAASGFSVISESMTWVRQAPGKGLEWVCAISSSGGSTYYADSVKGRFTCSRDNSKNTVHLQMNSLRAEDTAVYYCAAKKIDGARYDYWGQGTMVTVSS	–	3000 nM	fold reduction in protein A binding (increase in KD) against wild-type HVHPC235 (protein A [2]): 10 fold
HVHM41S (antibody, V domains shown, Cys49/Cys69 (Kabat) mutant of HVHM41; VH single-domain antibody; tag not specified) VH: QVQLVQSGGGLVQPGRSLRLSCAASGFAFSSYAMSWVRQAPGKGLEWVCAISGGGDHTYYADSVKGRFTCSRDNSKNTLYLQMNSLRAEDTAVYYCAKEGMVRGVSSAPFDYWGQGTLVTVSS	–	1500 nM	Kd (protein A [3]): 1800 nM
HVLHLAQ (antibody, V domains shown, Anti-human lysozyme VL single-domain antibody from the HVLP324S library (Cys48/Cys64); not shown: C-terminal His6 tag) VL: DIQMTQSPSSLSASVGDRVTITCGASQSIAQRLYWYQQKPGKAPKLLCFPASLLHSGVPSRFSCSGSGTDFTLTISNLQPEDFATYYCAQRASPPRPTFGHGTKVTVL	200 nM	–	–
HVLHLNN (antibody, V domains shown, Anti-human lysozyme VL single-domain antibody from the HVLP324S library (Cys48/Cys64); not shown: C-terminal His6 tag) VL: DIQMTQSPSSLSASVGDRVTITCSASQSINNRLYWYQQKPGKAPKLLCFPASFLFSGVPSRFSCSGSGTDFTLTISNLQPEDFATYYCQQSYSTPRTFGHGTKVTVL	200 nM	–	–
HVLHLNE (antibody, V domains shown, Anti-human lysozyme VL single-domain antibody from the HVLP324S library (Cys48/Cys64); not shown: C-terminal His6 tag) VL: DIQMTQSPSSLSASVGDRVTITCDASQSINERLYWYQQKPGKAPKLLCFPASILTSGVPSRFSCSGSGTDFTLTISNLQPEDFATYYCRQPRSGPSTFGHGTKVTVL	60 nM	–	–
HVLHLDS (antibody, V domains shown, Anti-human lysozyme VL single-domain antibody from the HVLP324S library (Cys48/Cys64); not shown: C-terminal His6 tag) VL: DIQMTQSPSSLSASVGDRVTITCTVSQGIDSRLYWYQQKPGKAPKLLCFPASLLESGVPSRFSCSGSGTDFTLTISNLQPEDFATYYCQQSYSTPRTFGHGTKVTVL	6100 nM	–	–
HVHP419S (antibody, V domains shown, Cys49/Cys69 (Kabat) mutant of HVHP419; VH single-domain antibody; tag not specified) VH: QLQLQESGGGLVQPGGSLRLSCAASGFTFSSYAMSWVRQAPGKGLEWVCAISGSGGSTYYADSVKGRFTCSRDNSKNSLYLQMNSLGAEDTAVYYCARSWSGSSYGGDLDSWGQGTLVTVSS	–	4800 nM	Kd (protein A [3]): 3200 nM
HVHP429S (antibody, V domains shown, Cys49/Cys69 (Kabat) mutant of HVHP429; VH single-domain antibody; tag not specified) VH: EVQLVESGGTLVQPGGSLRLSCAASGFTFINYAMSWVRQAPDKGLDWVCTISNNGGATYYADSVKGRFTCSRDNSNNTLYLQMNSLRPDDTAVYYCAKGPINTGRYGDWGQGTLVTVSS	–	5500 nM	Kd (protein A [3]): 3400 nM
HVLHLRN (antibody, V domains shown, Anti-human lysozyme VL single-domain antibody from the HVLP324S library (Cys48/Cys64); not shown: C-terminal His6 tag) VL: DIQMTQSPSSLSASVGDRVTITCKASQGIRNRLYWYQQKPGKAPKLLCFPASILDSGVPSRFSCSGSGTDFTLTISNLQPEDFATYYCAQQPGLPNSRTFGHGTKVTVL	50 nM	–	–

Source: patent US20170044238A1 (NATIONAL RESEARCH COUNCIL OF CANADA, published 2017)
